From patent US20170121398A1 (PROTHENA BIOSCIENCES, published 2017)

Target: pH4.0-treated TTR (human, UniProt P02766 21-147)
Test: ELISA, pH4-treated TTR-His captured on an anti-His coat, anti-mouse HRP detection, OD450

B1: mouse antibody 6C1 (antibody, IgG1, V domains shown)
VH: EVQLVESGGGLVQPGGSLKLSCAASGFTFSNYYMSWVRQTPEKRLEWVAYISIDGNNIYHPDSVKGRFTISRDNAKNTLYLQMSSLKSEDTAMYYCARDSDYGYFDVWGTGTTVTVSS
VL: DVLMTQTPLSLPVSLGDQASISCRSSQSIVHSNGNTYLEWYLQKRGQSPKLLIYKVSKRFSGVPDRFSGSGSGTDFILKISRVEAEDLGVYYCFQGSHVPLTFGGGTKLELK
notes: also called m6C1; mis-TTR mAb 6C1
EC50 (read off the curve): ~0.2 µg/mL
